Experiments:
Assay in all cases: cell-based or functional assay
[1] = molecular target: E protein of wild-type DEN-3 16562 virus (dengue-3 virus, strain 16562) (UniProt P27915)
[2] = molecular target: E protein of wild-type DEN-1 16007 virus (dengue-1 virus, strain 16007) (UniProt P27909)
[3] = molecular target: E protein of wild-type DEN-4 1036 virus (dengue-4 virus, strain 1036) (UniProt P09866)

## monoclonal antibody 3H5 (specific for DEN-2 E protein)
[1]
  Reciprocal serum dilution-plaque reduction neutralization titers (50% endpoint) (reciprocal dilution): 40
[2]
  Reciprocal serum dilution-plaque reduction neutralization titers (50% endpoint) (reciprocal dilution): 20
[3]
  Reciprocal serum dilution-plaque reduction neutralization titers (50% endpoint) (reciprocal dilution): < 20
